The target in assay [1] is T1, Human PLAP (soluble, as injected in SPR) (human, UniProt P05187 23-506).
T1 construct: also called PLAP target
Briefly: SPR RAC assay (Biacore T200, 25°C); TCB captured by anti-PG antibody on CM3 chip, 100 nM human PLAP injected. The protocol:
(§1) SPR experiments were performed on a Biacore T200 instrument (GE Healthcare). For the immobilization. HBS-N pH 7.4 was used as a running buffer (Cytiva #BR100670). Anti-PG antibody (see Example 3) was immobilized by amine coupling (using amine coupling kit, Cytiva #BR100050) at a density of >6000 RU on a CM3 Chip (Cytiva #29104990). The anti-PG antibody stock solution was diluted to a concentration of 25 μg/mL in a 10 mM sodium acetate buffer of pH 5.0 (Cytiva #BR100351). After the immobilization the analysis was performed at 25° C., and using PBS-P+ (Cytiva #28995084) as a running and a dilution buffer. The 5 nM solutions of TCB molecule samples in PBS-P+ were captured for 30 sec at a flow rate 5 μl/min. Then a 100 nM solution of human PLAP was injected for 90 sec association time and 30 sec dissociation time at a flow rate of 8 μl/min. Thereafter, a 200 nM solution of human CD3ε/δ (see Example 3, SEQ ID NOs 24 and 25) was injected for 90 sec association time and 30 sec dissociation time at a flow rate of 8 μl/min. The regeneration of the surface followed by two 60 sec regeneration steps with a 10 mM NaOH solution. The data were analyzed with the Biacore T200 Evaluation and Excel software. For the calculation of relative active concentration (RAC) the binding report point (BRP) was used. To calculate the RAC, the target and antibody concentrations were referenced to the unstressed sample (−80° C.) as 100% comparison. For the normalization of the protein concentration, reference was made to anti-PG antibody capturing (RAC values).
Background: SPR reads the build-up and loss of mass on a sensor chip optically.

Assay [2] deals with T2, Human CD3ε stalk-Fc(knob)-Avi/CD3δ stalk-Fc(hole) (human).
T2 construct: Heterodimer of CD3 delta and CD3 epsilon ectodomains fused to a human Fc domain with knob-into-hole modifications and C-terminal Avi-tag; also called human CD3ε/δ; CD3ε/δ
Briefly: SPR RAC assay (Biacore T200, 25°C); TCB captured by anti-PG antibody on CM3 chip, 200 nM human CD3ε/δ injected after 100 nM human PLAP. The protocol: as §1

The target in assay [3] is T2, Human CD3ε stalk-Fc(knob)-Avi/CD3δ …. Nature of the assay: SPR single cycle kinetics (Biacore T200, 25°C); TCB captured by anti-PG antibody on CM3 chip, human CD3ε/δ as analyte. The protocol:
(§2) The binding kinetics of the PLAP TCB molecules generated in Example 17 were characterized by the single cycle kinetic (SSK) assay. For this assay, again the SPR Biacore T200 was used. The immobilization was performed at 25° C. with HBS-N pH 7.4 as a running buffer (Cytiva #BR100670). The anti-PG antibody (see Example 3) was immobilized by amine coupling (using amine coupling kit, Cytiva #BR100050) at a density of >5000 RU on a CM3 Chip (Cytiva #29104990). The anti-PG antibody stock solution was diluted to a concentration of 25 μg/mL in a 10 mM sodium acetate buffer of pH 5.0 (Cytiva #BR100351). After the immobilization the analysis was performed at 25° C., and PBS-P+(Cytiva #28995084) was used as a running and a dilution buffer. The 3 nM solutions of TCB molecule samples in PBS-P+ were captured with anti-PG antibody on a CM3 sensor chip.
(§3) The derived kinetic rate constants and corresponding affinity values (equilibrium dissociation constant KD) are summarized in Table 26 for the CD3 binder and in Table 27 for the PLAP binder. The data were analyzed with the Biacore T200 Evaluation and Excel software.

Assay [4] deals with T1, Human PLAP (soluble, as injected in SPR). Nature of the assay: SPR single cycle kinetics (Biacore T200, 25°C); TCB captured by anti-PG antibody on CM3 chip, human PLAP as analyte. The protocol: as §2, §3
Assay [5] deals with T3, human PLAP (ALPP) expressed on CHO-K1 cells (human, UniProt P05187 23-506). Briefly: cell-based or functional assay.
T3 sequence (P05187 23-506): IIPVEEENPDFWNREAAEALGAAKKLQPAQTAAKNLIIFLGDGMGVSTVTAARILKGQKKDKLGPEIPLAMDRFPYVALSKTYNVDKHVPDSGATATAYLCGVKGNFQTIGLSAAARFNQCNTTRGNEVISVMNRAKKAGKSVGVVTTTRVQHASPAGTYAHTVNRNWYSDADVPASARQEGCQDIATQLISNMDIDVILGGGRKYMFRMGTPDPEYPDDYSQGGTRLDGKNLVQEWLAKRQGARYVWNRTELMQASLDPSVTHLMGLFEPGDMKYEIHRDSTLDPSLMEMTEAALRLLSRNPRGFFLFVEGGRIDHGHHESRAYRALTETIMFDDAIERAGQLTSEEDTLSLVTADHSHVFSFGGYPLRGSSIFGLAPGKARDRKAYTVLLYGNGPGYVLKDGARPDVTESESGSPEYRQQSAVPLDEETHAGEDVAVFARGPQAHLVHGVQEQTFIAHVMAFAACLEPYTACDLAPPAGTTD
Assay [6] addresses human ALPG (ALPPL2) expressed on CHO-K1 cells (human, UniProt P10696 20-503). Briefly: cell-based or functional assay.
Assay [7] has as its target T4, cynomolgus PLAP (ALPP) expressed on CHO-K1 cells (cynomolgus, UniProt P05187 23-452 (human entry)).
T4 chain: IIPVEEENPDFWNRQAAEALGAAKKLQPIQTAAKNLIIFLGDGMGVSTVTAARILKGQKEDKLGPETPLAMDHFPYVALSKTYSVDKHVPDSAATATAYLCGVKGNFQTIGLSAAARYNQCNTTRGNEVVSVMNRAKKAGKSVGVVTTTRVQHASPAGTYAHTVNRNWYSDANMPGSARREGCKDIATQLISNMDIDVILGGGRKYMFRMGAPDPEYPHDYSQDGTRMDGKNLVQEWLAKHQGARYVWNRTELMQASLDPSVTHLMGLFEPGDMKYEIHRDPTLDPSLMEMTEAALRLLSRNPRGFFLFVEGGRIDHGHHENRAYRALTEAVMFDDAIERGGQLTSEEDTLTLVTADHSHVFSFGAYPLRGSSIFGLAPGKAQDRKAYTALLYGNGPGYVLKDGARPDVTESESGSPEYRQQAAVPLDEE
Briefly: cell-based or functional assay.

The target of assay [8] is T3, human PLAP (ALPP) expressed on CHO-K1 …. Nature of the assay: cell-based or functional assay. The source holds these as a separate data set.
Assay [9] concerns the target T2, Human CD3ε stalk-Fc(knob)-Avi/CD3δ …. Nature of the assay: SPR (Biacore T200, 25°C); TCB captured by anti-PG antibody on CM5 chip, 300 nM human CD3ε/δ injected; relative active concentration. The protocol: SPR experiments were performed on a Biacore T200 instrument (GE Healthcare) at 25° C. with HBS-P+(10 mM HEPES, 150 mM NaCl pH 7.4, 0.05% Surfactant P20) as running and dilution buffer. Anti-PG antibody (see Example 3) was immobilized by amine coupling (using amine coupling kit, Cytiva #BR100050) at a density of >6000 RU on a CM5 Chip (Sensor Chip CM5, Cytiva #29104988). The 10 nM solutions of TCB molecule samples in HBS-P+ were captured for 30 sec at a flow rate 10 μl/min. Then a 300 nM solution of human CD3ε/δ (see Example 3, SEQ ID NOs 24 and 25) was injected for 150 sec association time and 120 sec dissociation time at a flow rate of 10 μl/min. The regeneration of the surface followed by a 35 sec regeneration step with a 20 mM NaOH solution. The data were analyzed with the Biacore T200 Evaluation and Excel software. For the calculation of relative active concentration (RAC) the binding report point (BRP) was used (the BRP is a standard readout point in SPR, maximum response (unit/value) of interaction between antigen and antibody).

What is called Kd is the equilibrium constant for the complex coming apart. Usually koff stands for the rate constant with which the complex falls apart. A higher koff goes with a short-lived complex. A word on the kon: it is the rate constant with which the complex forms. Low values mean slower complex formation, high ones faster complex formation.

T1 sequence (P05187 23-506 limits assumed): as the sequence (P05187 23-506) above

B1: PLAP H3 CD3 P035.093 TCB (bispecific antibody, human IgG1, kappa, L234A L235A)
heavy 1: not shown
heavy 2: QVQLQESGPGLVKPSETLSLTCTVSGFSLTSYGVSWIRQPPGKGLEWIGVIWEDGSTNYNPSLKSRVTISVDTSKNQFSLKLSSVTAADTAVYYCARPHYGSSYVGAMEYWGAGTTVTVSSASTKGPSVFPLAPSSKSTSGGTAALGCLVEDYFPEPVTVSWNSGALTSGVHTFPAVLQSSGLYSLSSVVTVPSSSLGTQTYICNVNHKPSNTKVDEKVEPKSCDKTHTCPPCPAPEAAGGPSVFLFPPKPKDTLMISRTPEVTCVVVDVSHEDPEVKFNWYVDGVEVHNAKTKPREEQYNSTYRVVSVLTVLHQDWLNGKEYKCKVSNKALGAPIEKTISKAKGQPREPQVCTLPPSRDELTKNQVSLSCAVKGFYPSDIAVEWESNGQPENNYKTTPPVLDSDGSFFLVSKLTVDKSRWQQGNVFSCSVMHEALHNHYTQKSLSLSP
light 1: DIQMTQSPSSLSASVGDRVTITCRASENIYSYVAWYQQKPGKAPKLLIYNAKSLASGVPSRFSGSGSGTDFTLTISSLQPEDFATYYCQHHYVSPWTFGGGTKLEIKRTVAAPSVFIFPPSDRKLKSGTASVVCLLNNFYPREAKVQWKVDNALQSGNSQESVTEQDSKDSTYSLSSTLTLSKADYEKHKVYACEVTHQGLSSPVTKSFNRGEC
light 2: EVQLLESGGGLVQPGGSLRLSCAASGFTFSSYAMNWVRQAPGKGLEWVSRIRSKYNNYATYYADSVKGRFTISRDDSKNTLYLQMNSLRAEDTAVYYCVRASNFPASYVSYFAYWGQGTLVTVSSASVAAPSVFIFPPSDEQLKSGTASVVCLLNNFYPREAKVQWKVDNALQSGNSQESVTEQDSKDSTYSLSSTLTLSKADYEKHKVYACEVTHQGLSSPVTKSFNRGEC
notes: 2+1 IgG CrossFab, inverted; also called PLAP H3 TCB; PLAP (H3) TCB
With B1, in assay [1], the “RAC [%] PLAP binding, stress A” value amounted to 100%; the “RAC [%] PLAP binding, stress B” value was found to be 100%; the “RAC [%] PLAP binding, unstressed” value stood at 100%. Besides, in [2], the “RAC [%] CD3 binding, stress A” value was found to be 99%; the “RAC [%] CD3 binding, stress B” value amounted to 98%; the “RAC [%] CD3 binding, unstressed” value turned out to be 100%. In [3], the affinity, expressed as Kd, was 0.5 nM; the koff stood at 0.000933 s⁻¹; the kon worked out at 2.09e+06 M⁻¹ s⁻¹. In assay [4], this molecule had a Kd of 5.1 pM, a koff of 2.22e-05 s⁻¹ and a kon of 4.33e+06 M⁻¹ s⁻¹. Further, the “EC50 (pM), Jurkat NFAT reporter assay (luminescence, 6 h)” value in assay [5] came to 35 pM. Also, the “EC50 (pM), Jurkat NFAT reporter assay (luminescence, 6 h)” value in assay [6] amounted to 35 pM. The “EC50 (pM), Jurkat NFAT reporter assay to show cynomolgus cross-reactivity” value in assay [7] stood at 48 pM. Further, the “EC50 (pM), Jurkat NFAT reporter assay to show cynomolgus cross-reactivity” value in assay [8] was determined as 98 pM. Also, in assay [9], the “RAC % of CD3 binding, stress A” value stood at 99%; the “RAC % of CD3 binding, stress B” value was determined as 97%; the “RAC % of CD3 binding, unstressed” value is 100%.
